Earlier results on 1 substance are cited in publication PMC2875293.

Usually Kd stands for the constant that tells how readily two partners part at equilibrium.

The target of the data set is Sep15 (Homo sapiens) (UniProt O60613).
Sep15 (Homo sapiens), sequence (O60613 32-165): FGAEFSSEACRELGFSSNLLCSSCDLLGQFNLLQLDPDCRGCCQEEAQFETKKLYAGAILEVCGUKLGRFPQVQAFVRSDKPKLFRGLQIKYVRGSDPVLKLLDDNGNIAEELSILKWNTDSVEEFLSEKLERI

GT1 (UDP-glucose:glycoprotein glucosyltransferase 1), sequence (Q9NYU2 43-1555): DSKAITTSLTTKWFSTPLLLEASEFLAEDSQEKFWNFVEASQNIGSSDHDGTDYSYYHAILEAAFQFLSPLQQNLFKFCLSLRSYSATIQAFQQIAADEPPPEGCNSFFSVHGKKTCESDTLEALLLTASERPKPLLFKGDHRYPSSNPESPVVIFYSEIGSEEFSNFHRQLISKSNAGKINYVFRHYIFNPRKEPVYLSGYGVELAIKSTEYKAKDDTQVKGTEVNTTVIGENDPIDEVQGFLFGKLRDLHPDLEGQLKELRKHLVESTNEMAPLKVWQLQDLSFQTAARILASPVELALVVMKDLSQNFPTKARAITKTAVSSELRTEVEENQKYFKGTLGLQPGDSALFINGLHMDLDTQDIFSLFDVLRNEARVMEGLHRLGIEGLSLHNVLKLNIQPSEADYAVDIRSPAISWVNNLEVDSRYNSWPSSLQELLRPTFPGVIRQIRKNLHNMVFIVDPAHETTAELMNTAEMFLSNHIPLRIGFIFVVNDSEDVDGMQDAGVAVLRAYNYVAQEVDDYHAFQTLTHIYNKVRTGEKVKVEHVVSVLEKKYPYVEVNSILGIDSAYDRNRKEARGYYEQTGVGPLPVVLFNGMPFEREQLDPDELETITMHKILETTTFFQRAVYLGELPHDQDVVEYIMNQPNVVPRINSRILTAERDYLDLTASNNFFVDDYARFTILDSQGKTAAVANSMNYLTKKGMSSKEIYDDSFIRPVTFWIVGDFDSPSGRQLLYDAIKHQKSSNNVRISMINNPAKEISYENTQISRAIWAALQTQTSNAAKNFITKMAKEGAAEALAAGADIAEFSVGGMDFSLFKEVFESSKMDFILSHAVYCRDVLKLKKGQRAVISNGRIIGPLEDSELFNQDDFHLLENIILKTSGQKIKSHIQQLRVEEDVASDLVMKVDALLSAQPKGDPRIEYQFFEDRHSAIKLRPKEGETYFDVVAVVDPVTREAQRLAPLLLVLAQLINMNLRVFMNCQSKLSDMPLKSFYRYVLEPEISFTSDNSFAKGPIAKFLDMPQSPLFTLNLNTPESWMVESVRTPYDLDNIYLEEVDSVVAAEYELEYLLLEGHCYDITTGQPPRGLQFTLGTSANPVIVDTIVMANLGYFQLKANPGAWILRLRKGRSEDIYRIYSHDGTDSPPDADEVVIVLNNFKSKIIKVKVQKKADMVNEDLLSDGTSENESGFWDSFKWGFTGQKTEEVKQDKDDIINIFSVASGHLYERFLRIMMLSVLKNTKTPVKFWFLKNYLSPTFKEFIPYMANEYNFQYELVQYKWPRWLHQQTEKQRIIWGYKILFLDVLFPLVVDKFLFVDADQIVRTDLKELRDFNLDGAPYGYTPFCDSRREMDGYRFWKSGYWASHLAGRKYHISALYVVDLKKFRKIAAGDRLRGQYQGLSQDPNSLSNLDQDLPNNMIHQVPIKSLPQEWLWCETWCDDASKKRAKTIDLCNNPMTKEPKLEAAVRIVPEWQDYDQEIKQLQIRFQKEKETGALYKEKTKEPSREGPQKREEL

Regarding “GT1 (UDP-glucose:glycoprotein glucosyltransferase 1) (from UniProt Q9NYU2)”, the Kd was less than 20 nM.
